Each block holds one substance with its values, some of them ahead of it.
Columns and labels:
[1] = molecular target: MART-1 peptide on HLA-A*02:01 (human); assay: SPR, Biacore 3000, TCR amine-coupled to a CM5 chip, refolded pMHC injected, 25 C; the same value stands in Table 2 r6, where the peptide is printed as AAG; soluble, other
[2] = molecular target: MART-1 peptide on HLA-A*02:01 (human); assay: SPR, Biacore 3000, TCR amine-coupled to a CM5 chip, refolded pMHC injected up to 100 micromolar, 1:1 Langmuir model (Fig. 4); soluble, other
[3] = molecular target: MART-1 peptide on HLA-A*02:01 (human); assay: SPR, Biacore 3000, TCR amine-coupled to a CM5 chip, refolded pMHC injected, 25 C, 1:1 Langmuir model; Table 2 draws on Fig. 2 and published work (PMID: 24550723); soluble, other
[4] = molecular target: MART-1 peptide on HLA-A*02:01 (human); assay: SPR, Biacore 3000, TCR amine-coupled to a CM5 chip, refolded pMHC injected up to 100 micromolar, 25 C, 1:1 Langmuir model (Fig. 2); soluble, other
[5] = molecular target: MART-1 peptide on HLA-A*02:01 (human); assay: SPR, Biacore 3000, TCR amine-coupled to a CM5 chip, refolded pMHC injected up to 100 micromolar, 1:1 Langmuir model (Fig. 4); weaker than αD26Y/βL98W (0.024) and wild-type DMF5 (9.5); soluble, other

Substance: DMF5 TCR αD26Y/βL98W
Kd [1]: 24 nM

Substance: DMF5 TCR αD26Y/αY50F/βL98W
Kd [2]: 640 nM

Substance: DMF5 TCR αD26Y/αY50W/βL98W
Kd [2]: 660 nM

Substance: DMF5 TCR αD26Y/αY50A/βL98W
Kd [5]: 556000 nM

Substance: DMF5 TCR βL98W
Kd [3]: 2900 nM

Other lines, results leading:

Kd [3]: 460 nM | Kd [4]: 4500 nM
Substance: DMF5 TCR αD26Y

Kd [2]: 7140 nM
Substance: DMF5 TCR αD26Y/αY50V/βL98W
